Experimental findings from patent US20030049649, “Targeted modification of chromatin structure” (published 2003) are described below.

For the series, the target named is T1, Veg1 (unfused three-finger ZFP) (Artificial (human SP1 backbone), UniProt P08047 SEQ:1-99).
T1 chain: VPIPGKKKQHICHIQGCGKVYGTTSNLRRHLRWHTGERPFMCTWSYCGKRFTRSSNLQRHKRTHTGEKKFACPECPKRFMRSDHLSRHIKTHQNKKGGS
As to the kind of experiment: EMSA; apparent Kd (half-maximal binding), 100 mM KCl, 1 mM MgCl2, 100 uM ZnCl2, room temperature; not corrected for purity. The conditions noted are these: tags: none, expressed in E. coli BL21/DE3 from pET15b, >50% pure; label: 5' 32P top strand. On the procedure: Assays for binding of Veg1 to the target oligonucleotide (above) were performed by titrating protein against a fixed amount of duplex target. Binding reactions contained 50 pM 5′ ³²P labeled double stranded target DNA, 10 mM Tris-HCl (pH 7.5), 100 mM KCl, 1 mM MgCl₂, 1 mM dithiothreitol, 10% glycerol, 200 μg/ml bovine serum albumin, 0.02% NP-40, 20 μg/ml poly dI-dC (optionally), and 100 μM ZnCl₂, in a final volume of 20 μl. Protein was added to the binding reaction as one-fifth volume from a dilution series made in 200 mM NaCl, 20 mM Tris (pH 7.5), 1 mM DTT. Binding was allowed to proceed for 45 min at room temperature. Polyacrylamide gel electrophoresis was carried out at room temperature using precast 10% or 10-20% Tris-HCl gels (BioRad, Hercules, Calif.) and Tris-Glycine running buffer (25 mM Tris-HCl, 192 mM glycine, pH 8.3) containing 0.1 mM ZnCl₂. Radioactive signals were quantitated with a Phosphorimager.
Shifted product, indicative of labeled target with bound protein, is indicated by an arrow in FIG. 2A. The amount of shifted product was determined at each protein concentration and quantitated on a Phosphorimager (Molecular Dynamics). The relative signal (percent of maximal amount of shifted product) was plotted as a function of log₁₀ protein concentration. […]
On the technique in general: Mobility shift assays separate free from complexed probe on a gel.

B1: Veg1 29-mer target duplex (dsDNA)
DNA 1: CATGCATAGCGGGGAGGATCGCCATCGAT
DNA 2: ATCGATGGCGATCCTCCCCGCTATGCATG
Take B1: the Kd was roughly 50 nM.
